The values below come from paper PMC5785358, “The STENOFOLIA gene from Medicago alters leaf width, flowering time and chlorophyll content in transgenic wheat”.

What all share (test): EMSA; 10 mM Tris pH 7.5, 50 mM KCl, 1 mM DTT, 2.5% glycerol, 0.05% NP-40, 5 mM MgCl2, 0.5 mM EDTA, 5 ng/uL poly(dI.dC), 1 ug protein, 100 fmol probe, room temperature 40 min
What all share (conditions): protein: recombinant; tags: MBP (N-terminal, pMAL-c2X); label: 3' biotin; blunt
A general note: Mobility shift assays separate free from complexed probe on a gel.

Data set [1] has as its target T1, MBP-STF full length (STENOFOLIA) (Medicago truncatula, UniProt G0ZGT3 1-358).
T1 sequence: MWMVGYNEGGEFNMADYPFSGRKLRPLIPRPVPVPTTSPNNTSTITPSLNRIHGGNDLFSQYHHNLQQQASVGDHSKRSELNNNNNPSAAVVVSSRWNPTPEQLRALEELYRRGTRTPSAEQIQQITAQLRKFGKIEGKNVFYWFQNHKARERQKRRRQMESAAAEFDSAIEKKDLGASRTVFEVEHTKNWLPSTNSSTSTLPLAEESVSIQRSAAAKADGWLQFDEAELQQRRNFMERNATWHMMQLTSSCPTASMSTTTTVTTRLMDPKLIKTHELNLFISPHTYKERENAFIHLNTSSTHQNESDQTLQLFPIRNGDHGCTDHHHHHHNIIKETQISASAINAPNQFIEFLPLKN

A further data set deals with T2, MBP-STF S3 (Medicago truncatula, UniProt G0ZGT3 1-90).
T2 sequence: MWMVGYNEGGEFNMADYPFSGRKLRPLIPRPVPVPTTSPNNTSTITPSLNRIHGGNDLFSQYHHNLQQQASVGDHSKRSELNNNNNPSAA

Another data set concerns the target T3, MBP-STF S2 (Medicago truncatula, UniProt G0ZGT3 263-358).
T3 sequence: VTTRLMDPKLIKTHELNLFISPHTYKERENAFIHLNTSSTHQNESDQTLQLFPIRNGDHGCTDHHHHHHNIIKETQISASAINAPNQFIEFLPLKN

The target in a further data set is T4, MBP-STF S1 (Medicago truncatula, UniProt G0ZGT3 1-262).
T4 sequence: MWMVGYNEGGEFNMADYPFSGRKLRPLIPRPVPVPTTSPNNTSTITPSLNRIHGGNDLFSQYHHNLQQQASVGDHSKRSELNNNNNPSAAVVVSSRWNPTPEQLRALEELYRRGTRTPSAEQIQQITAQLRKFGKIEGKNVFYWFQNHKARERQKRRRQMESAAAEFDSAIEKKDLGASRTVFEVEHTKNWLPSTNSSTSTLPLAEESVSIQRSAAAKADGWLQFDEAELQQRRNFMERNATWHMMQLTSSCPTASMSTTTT

B1: TaBEL-A1 probe (dsDNA)
DNA 1: GCTTGCGTGTGTGTGCATCAGAGAGAAAGAGAGAGAGAGAGAGGCCTGCCGCCCAAGATCTCTCTTGATCAGTGCCGAGATCATCAATCAGGGGGGCCTGCCATCCAAGTGGGCATCTCCATTTTTCTTCCTCCTCGAGCTGGTTTCCGAGCCTGATAAAACCACCCTCCCCGGCCTCGCTCAACTGCTCCCCAGC
DNA 2: GCTGGGGAGCAGTTGAGCGAGGCCGGGGAGGGTGGTTTTATCAGGCTCGGAAACCAGCTCGAGGAGGAAGAAAAATGGAGATGCCCACTTGGATGGCAGGCCCCCCTGATTGATGATCTCGGCACTGATCAAGAGAGATCTTGGGCGGCAGGCCTCTCTCTCTCTCTCTTTCTCTCTGATGCACACACACGCAAGC
Consider B1, for which, in data set [1], the binding result is “binds”.

B2: TaACC-B1 probe (dsDNA)
DNA 1: TTCTTCCAGGTGAATACACAGCACTAACATGGCATAATCTGACAGGATAAATCTCCTTATCGATCTATCCTTAATGCTCATCTGCTCTCTCTCTCTCTCTCTCTCTCTTTTTCGGTGGTGCGTGCAGGTCCTGGACCACGGCATCTCGACGGAGCTGATGGACAAGGTGGAGAAGATGACCAAGG
DNA 2: CCTTGGTCATCTTCTCCACCTTGTCCATCAGCTCCGTCGAGATGCCGTGGTCCAGGACCTGCACGCACCACCGAAAAAGAGAGAGAGAGAGAGAGAGAGAGCAGATGAGCATTAAGGATAGATCGATAAGGAGATTTATCCTGTCAGATTATGCCATGTTAGTGCTGTGTATTCACCTGGAAGAA
For the molecule B2, the binding result in data set [1] is reported as “binds”.

B3: TaKN1 probe (TaKN-B1 sequence printed) (dsDNA)
DNA 1: TACTGCAGTATTGCCCTCCAGCTTTTTCCTCTCGCTCCCCATCTCCTTCCCTCTAATGATAGCTTAGAGAGAGAAGGAGAAAAGGCTATTCCGCTCAAGGCAAGGCAGGCAGGTACCCTTCTCCTTCCCCAAACCCAAACCCTTTTTCTCTTTCTCTCCGCCCAAGAACTTCACCTCAAGCTCAATCCGTCT
DNA 2: AGACGGATTGAGCTTGAGGTGAAGTTCTTGGGCGGAGAGAAAGAGAAAAAGGGTTTGGGTTTGGGGAAGGAGAAGGGTACCTGCCTGCCTTGCCTTGAGCGGAATAGCCTTTTCTCCTTCTCTCTCTAAGCTATCATTAGAGGGAAGGAGATGGGGAGCGAGAGGAAAAAGCTGGAGGGCAATACTGCAGTA
For B3, the binding result in data set [1] was “binds”.

B4: TaACC-D1 probe (dsDNA)
DNA 1: TTCTTCCAGGTGAATACACCACAGTAGTAATATGGCATAATCTGACAAGATGAATCTCCTCATCGACCCATCCTTAATGTTGATTTGCTCTCTCTCTGTTTTCGGCGGTGCGTGCAGGTTCTGGACCACGGCATCTC
DNA 2: GAGATGCCGTGGTCCAGAACCTGCACGCACCGCCGAAAACAGAGAGAGAGCAAATCAACATTAAGGATGGGTCGATGAGGAGATTCATCTTGTCAGATTATGCCATATTACTACTGTGGTGTATTCACCTGGAAGAA
On to B4, for which the binding result is given as “no binding” with MBP-STF S3 and “binds” in data set [1].

B5: Ta6SFT-A1 probe (dsDNA)
DNA 1: ACTCCACGCACTAACTTTTTTAATAAGGTCTTCTGTGTGGGGAAAAAGACGGGATCTCTCTCTCTAGACATAATCAAAAGGGATTGTTTAACTCACACCAAATTTGGAGGAAAACTTTGACAGCAAAACAGGGGAAAACAGAGTTTCCATAGCGGGTTGGGGGTTCACTTCACAGTGGCGTAGATTGGA
DNA 2: TCCAATCTACGCCACTGTGAAGTGAACCCCCAACCCGCTATGGAAACTCTGTTTTCCCCTGTTTTGCTGTCAAAGTTTTCCTCCAAATTTGGTGTGAGTTAAACAATCCCTTTTGATTATGTCTAGAGAGAGAGATCCCGTCTTTTTCCCCACACAGAAGACCTTATTAAAAAAGTTAGTGCGTGGAGT
Take B5: the binding result is listed as “no binding” in the data set with MBP-STF S3, “no binding” with MBP-STF S2, “binds” with MBP-STF S1 and “binds” in data set [1].
